Consider two molecules from US20150038430A1 (published 2015).

Common to all, as to assay: MS-based binding affinity
In test [1] the target is Mcl-1.
Test [2] addresses Bcl-2.
For test [3], the target named is Bcl-xL (UniProt Q07817 1-212).

The term Kd denotes the free concentration of one partner at which half of the binding sites on the other are occupied at equilibrium, for simple one-to-one binding.

Bridge positions count the residues as written; N and C are the ends.

Chain of Bcl-xL (Q07817 1-212): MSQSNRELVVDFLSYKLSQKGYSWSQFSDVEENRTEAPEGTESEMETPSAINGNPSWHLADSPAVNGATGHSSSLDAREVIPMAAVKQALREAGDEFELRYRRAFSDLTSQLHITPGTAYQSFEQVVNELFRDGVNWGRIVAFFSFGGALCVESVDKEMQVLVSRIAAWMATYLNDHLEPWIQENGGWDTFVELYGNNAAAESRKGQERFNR

B1: SP-4 BIM Stapled (peptide)
peptide: Ac-IWIAQELRXIGDXFNAYYARR-NH2
modifications: staple 9-13; not fully specified (residues 9, 13); printed as Ac-IWIAQELR$IGD$FNAYYARR-NH2
As to B1, the Kd in test [1] and in test [2] was under 100 nM throughout.

B2: SP-4 (BIM-BH3 peptidomimetic macrocycle, Ac-IWIAQELR$IGD$FNAYYARR-NH2) (peptide)
peptide: Ac-IWIAQELRXIGDXFNAYYARR-NH2
modifications: staple 9-13; not fully specified (residues 9, 13); printed as Ac-IWIAQELR$IGD$FNAYYARR-NH2
B2 yielded a Kd in test [3] of under 100 nM.
